Measurements from patent publication US20120035094A1.

Experiments:
[1] = biological target: Monoclonal antibody M.Ab.F11; assay: platelet adhesion to immobilized M.Ab.F11 (150 ng/well), BCA protein read-out; peptide at 50 µM
[2] = biological target: Monoclonal antibody M.Ab.F11; assay: platelet adhesion to immobilized M.Ab.F11 (150 ng/well), BCA protein read-out; peptide at 500 µM

% inhibition of the adhesion of platelets to immobilized M.Ab.F11 [1] [%]	% inhibition of the adhesion of platelets to immobilized M.Ab.F11 [2] [%]	Binder
60	70	SVTVHSSEPEVRIPENNPVKLSC [F11R-peptide 1]
10	70	KSVTREDTGTYTC [F11R-peptide 4]
